According to the DeepSol protein solubility set:

Assay: soluble on expression in E. coli; label from the status in PepcDB or PDB records

Row | Sequence | soluble on expression in E. coli
1 | MSLAFVCLAIGCLYTFLISTTFGCTSSSDTEIKVNPPQDFEIVDPGYLGYMYLQWQPPLSLDHFKECTVEYELKYRNIGSETWKTIITKNLHYKDGFDLNKGIEAKIHTMLPWQCTNGSEVQSSWAETTYWISPQGIPETKVQDMDCVYYNWQYLLCSWKPGIGVLLDTNYNLFYWYEGLDHALQCVDYIKADGQNIGCRFPYLEASDYKDFYICVNGSSENKPIRSSYFTFQLQNIVKPLPPVYLTFTRESSCEIKMKWSIPLGPIPARCFDYEIEIREDDTTLVTATVENETYTLKTTNETRQLCFVVRSKVNIYCSDDGIWSEWSDKQCWEGEDLSKKTEGHHHHHH | not soluble
2 | MSLAHKAKLKIIPLGGLNEIGKNMTVFEYGNDIIVVDCGLAFPDDEMLGIDLVIPDITYLLKNREKVKAIVLTHGHEDHIGALPYVLKQLNVPIYGTRLTIGLVEYKLKEHGLLRDSKLITVKPRETVEIGQFKVEFIRTSHSIADSAALAIHTPVGTVFHSGDFKIDFTPIDGEVPDLHRFAQLGEKGVLVMLCDSTNIERPGYTMSERTVGETFDNLFRKAEQRIIVATFASNIHRVQQIINSAQKYGRKVAISGRSMVNVVNVAMELGYLTVPEGLLIDLDEANKLPHNKVVIITTGSQGEPMSALTRMASSEHKKVEIVPGDTVIISASPIPGNERLISRVINQLFKKGANVIYEALADIHVSGHACQEEIKLLHTLIKPKFFIPVHGEYRHLVQHAKLAESLGMPPENIFVVDNGTVLEFTKEGHHHHHH | soluble
3 | MSLAHLAAMFDDLVARFGDRPAIVDDRALSYRELDLLVRKIAVSLAALGIGKGDRVALFLGNCWEFLAVTLACNRLGVLVVPIGIRQRRAELEFLLNNSGAKVVVFEAELTDEIPAAAEVPQLAHRFVAHGTAEGARPFEDLLAAEPANAPLAEMHEDDTAVILYTSGTTGKPKGAELTHLSILHSSYAFARAHELTERDRGLVAVPLSHVTGLVGVSYATIAAGGCVVLMRQAFKTVDFLALAARERITYSILVPAIYTLAVMHPEFDKHDLSAWRIGCFGGAPMPVPTIEMLAKRLPNLQLRNAYGATETTSPTTIMPQAYWRDHMDSVGQAVPYAHVRVLDADDNEVAPGEPGELLIAGPMVVPRYWQRPDANAKEFVNGYWRSGDIGSIDQDGFVRVFDRKKDMINRGGFKIFSAEVENVICGIDGVLETAIIGTPDPVLGERVNAIVVTSEGASLSERDVAAYCAARMSDYKVPESIIIRSEPLPRNANGKIQKTVLRETIADRAASYAREGHHHHHH | not soluble
4 | MSLAPANGLRIYALGGISEIGRNMTVFEYNNRLLIVDCGVLFPSSGEPGVDLILPDFGPIEDHLHRVDALVVTHGHEDHIGAIPWLLKLRNDIPILASRFTLALIAAKCKEHRQRPKLIEVNEQSNEDRGPFNIRFWAVNHSIPDCLGLAIKTPAGLVIHTGDIKLDQTPPDGRPTDLPALSRFGDEGVDLMLCDSTNATTPGVSGSEADVAPTLKRLVGDAKQRVILASFASNVYRVQAAVDAAVASNRKVAFNGRSMIRNMEIAEKLGYLKAPRGTIISMDDASRMAPHKVMLITTGTQGEPMAALSRMARREHRQITVRDGDLIILSSSLVPGNEEAVFGVINMLAQIGATVVTGRDAKVHTSGHGYSGELLFLYNAARPKNAMPVHGEWRHLRANKELAISTGVNRDNVVLAQNGVVVDMVNEGHHHHHH | soluble
5 | MSLAQAMKIAIVDDEQDMRQSISQWLALSGYDTETFASAEEALKVLGSEYPGIVISDIKMPGMDGMQFLKKLMGADSSLPVIMITGHGDVPMAVEAMRVGAFDFLEKPFNPDRMSDLAKRASNARRLTLDNRALRRELSDGGQIMKKLIGTSPVMERLREDILDLGQADGHVLIDGETGTGKTLVAHALHAVGSRAGKKFVLVSCSALEEEALAKRLFGPMIPEDAQLPAIEEARGGTLVLEDVESLSDALQAKLLSVMNQQGTPAETRIVAISNLQEAGKTSEDVLRPDLFYRLAALRLTMPPLRQRGEDILTLFTRLSEQFAEEYGCDAPQVSAQEAAQLLQAPWPGNVRQLINIAERAVLQARRGSGTIASLLMSDHEDEGHHHHHH | soluble
6 | MSLAQPCAIIDLETTGGNIARDRITEVGMVLIDGERVERLSWLVNPGQPIPPFIENMTGISNEMVAGAPPFSAQADELLDRLQGRLLLAHNARFDYGFLKNEFRRHGLRFQARALCTVKLSRRLYPQHFKHSLDSLIARHGIDMPERHRALADAEAVYRFIRIAEAELGEDRVAHEAAQLLSQPAELSSLPAELQQQIEEGHHHHHH | not soluble
7 | MSLASKSIRILSVEDHPVVREGLVSIIGSQPDMVLVAQATNGSDAIAQFRTHHPDITLMDLRLPGISGTDALISIRGEFPRARVIILTTSDSHTEIDRALRAGAAAYILKSMPMNEMLAVIRSVHAGARHIPQEVASRLAENIGEESLTSRELEVLHLIRDGHRNKQIADELSISETTVNFHIKNIVGKMGANDRTHAVTIAVRRGLLQEGHHHHHH | soluble
8 | MSLATEQIQHIAIVGCVHGKYREMYRQLSEYEKSTGKEISFVICTGDMQTLRYEADLVYLKVPPKYKQMGDFHLYYEGKEKAPYLTLFIGGNHESSNVLLHLYNGGFVCFNMYYLGVCSCININGLRIVGVSGIYKSFDEKKPYTYPPSPNDVVSLFHTRNYVIQMLSNLSQSSQIDISLSHDWPQGIVMKGNYKQLYRFQPGFKKDGASLGSPINKVILNTLKPKYWISGHMHCEYHAEEGPTHFIALGKIGYKNAISYLDLPLKQKTDLEYDKDWVCNLIMTWPAFSNKAQFPDLSYSISELLSKRTKELDKKIIELWEKYIGLKIIYDSEGHHHHHH | not soluble
9 | MSLATILIADDDPVTRTTLSIMLEDEDHEVYEAADSAETLDLLETTEPHVVFMDMVLPDCEAGEGITRVRRAAPAVTIIAMTGQPDTARFSAMARDAGCKECLIKPFEKNRVLALTRKVLAARGHKEGHHHHHH | not soluble
10 | MSLATVDKPLPPTDWKVVDNSKTYLKESAMRSFAFDDTLCTLAGKTGQSFIRFWVHENTIVLGTQDTRLPFIREAIEFIEQEGYRAVVRNSGGLAVCLDAGILNLSLVFPGEATFSIDEGYERMVTLVKAIFKEEQIEAGEIAGSYCPGSYDLSIDGKKFAGISQRRIRGGIAVQIYLCVQGSGSARAAFIRSVYNKAVQTSKPAFSYPDIKPEVMASLSELTNVPYSIETIIGRAKTAILESGGQLESAVLSPEEELLYETQLERMIDRHNRCLREGHHHHHH | soluble
11 | MSLAVEIACLDLEGVLVPEIWIAFAEKTGIESLRATTRDIPDYDVLMKQRLRILDEHGLKLADIQAVISTLKPLEGAVEFVDWLRERFQVVILSDTFYEFSQPLMRQLGFPTLLCHRLITDETDRVVSYQLRQKDPKRQSVLAFKSLYYRIIAAGDSYNDTTMLGEADAGILFHAPDNVIREFPQFPAVHTFDELKKEFIKASNRELVLEGHHHHHH | soluble
12 | MSLAYGIRLLVWGERACFTRPEMKVERVSYDVITPSAARGILEAIHWKPAICWVVDRIHVLKPIRFESIRRNEVGGKLSAASVGKAMKAGRTDGLIALADEDRQQRAATVLRDVSYVIEAHFELTARADASDSEGKHLDIFNRRARKGQYFHAPCLGVREFPASFELIEPDDVLPAVPADLRGERELGWMLHDIDFANDMTPHFFRAVMRDGVIEVPALRSEGVKAEGHHHHHH | soluble
13 | MSLCAAHAARPLALVMRLGYETAMSQIESLFVTRLYRARLSEHGPAIDPEEMEASCYSIAEDDEAGQEWCEENGYPGYTSYASLTDLPWRFPIFADLVTSLDAHVAAFAADLEFDLDGRKLVLEDLWINILPQGGMHSSHLHPHSVISGTTYVAMPEGASALKLEDPRSGRMMAAPTRTKTARRELQPFIYMKPDVGDVLLWESWLRHEVPMNMSEEERISVSFNYRWDEGHHHHHH | soluble
14 | MSLCGLLGILTANGNAEAFVPALERALPCMRHRGPDDAGTWHDADAAFGFNRLSIIDIAHSHQPLRWGPADEPDRYAMTFNGEIYNYVELRKELSDLGYAFNTSGDGEPIVVGFHHWGESVVEHLRGMFGIAIWDTKEKSLFLARDQFGIKPLFYATTEHGTVFSSEKKTILEMAEEMNLDLGLDKRTIEHYVDLQYVPEPDTLHAQISRLESGCTATVRPGGKLEQKRYFKPQFPVQKVVKGKEQDLFDRIAQVLEDSVEKHMRADVTVGSFLSGGIDSTAIAALAKRHNPDLLTFTTGFEREGYSEVDVAAESAAAIGAEHIVKIVSPEEYANAIPKIMWYLDDPVADPSLVPLYFVAAEARKHVKVVLSGEGADELFGGYTIYKEPLSLAPFEKIPSPLRKGLGKLSKVLPDGMKGKSLLERGSMTMEERYYGNARSFNFEQMQRVIPWAKREWDHREVTAPIYAQSRNFDPVARMQHLDLFTWMRGDILVKADKINMANSLELRVPFLDKEVFKVAETIPYDLKIANGTTKYALRRALEQIVPPHVLHRKKLGFPVPMRHWLAGDELFGWAQDTIKESGTEDIFNKQAVLDMLNEHRDGVSDHSRRLWTVLSFMVWHGIFVENRIDPQIEDRSYPVEEGHHHHHH | soluble
15 | MSLCRRRLATWLLDGSQPPTLLLPEQEGINGIRFPIWLDENGKRVAADCPQARQEMINVWPLPLEPWLPASERRAVRLPPASTSCPPYGHDAQLPLQLTGVRDGAIIKRLPGAAEATLPLQSSGGAGERWWFLNGEPLTERGRNVTLHLTDKGDYQLLVMDDVGQIATVKFVMQEGHHHHHH | soluble
16 | MSLDAENRAFYKIFTLKNNNLCKNSTLLEKIFKNNVEEFDFSLVKQNLEHEKNCVITSTMNQTIFFENMNSKEMGNKAYSFFNQTVLNNKGNTSLEEQISDIFDRCVYMNAEKSSSYIKLLEQDYNQVDMFVSLIFIGPYRHNLILITPVTLHLTLIPKNVKNNSFKNLFSGDMHFNMVTMTHLTEGHHHHHH | soluble
17 | MSLDARKNNVTIKVGMIGDSSIGKTSLMVTYVQGSFDEESTQTLGVNFMEKTISIRNTEITFSIWDLGGQREFVNMLPMVCNDAVAILFMFDLSRKSTLNSIKEWYRQARGFNKTAVPILIGTKYDHFMTFPREDQEEITKQARRYAKAMKASLVFCSTSHSINVQKIFKIVLAKVFDLKCTIPEIKNVGDPILEYIDREGHHHHHH | soluble
18 | MSLDAVRAVLIDIDGVLTVSWKPLPGAIEALHRIRDASLGVVLLTNTTSRTRASIAATLGASGFPVSAEDILTAPTATAAHLTDHCPGARCSLLNSGDIREDLVGVTLLDDTDTVPDVVIVGGAGPEFDYAALNRVFGHLQRGARLVAMHRNLYWRTDRGLDLDSGAFLLGLEHAAGTRAEITGKPAPAFFEAALTRLGAGPGQAVMVGDDIESDVLAAQRTGITGVLVKTGKYLPETHHAASARPDHVLDSVADLPALLDSVVREGHHHHHH | soluble
19 | MSLDFDADTPVVGMVHLSPLPGAPGYDDGNRPAIRDAALRDASRLEAGGVDALLVENFGDAPFYADDVPKHVVASMAALVRDITREAEVPVGVNVLRNDAEAAVSIAAAADADFVRVNVHTGARLTDQGVVGGQAAETVRLRDRLDAAEVSMLADIDVKHSAALAERPLSEGVAELLERGHADGVIASGAGTGHATDHDHLQAVVDARDRLDADAPVFVGSGVTQETVGATLDLADGAIVGTALKQNGETTAPVDGDRVRALVDAAR | not soluble
20 | MSLDFWLYKQAQQNGHHIAITDGQESYTYQNLYCEASLLAKRLKAYQQSRVGLYIDNSIQSIILIHACWLANIEIAMINTRLTPNEMTNQMRSIDVQLIFCTLPLELRGFQIVSLDDIEFAGRDITTNGLLDNTMGIQYDTSNETVVPKESPSNILNTSFNLDDIASIMFTSGTTGPQKAVPQTFRNHYASAIGCKESLGFDRDTNWLSVLPIYHISGLSVLLRAVIEGFTVRIVDKFNAEQILTMIKNERITHISLVPQTLNWLMQQGLHEPYNLQKILLGGAKLSATMIETALQYNLPIYNSFGMTETCSQFLTATPEMLHARPDTVGMPSANVDVKIKNPNKEGHGELMIKGANVMNGYLYPTDLTGTFENGYFNTGDIAEIDHEGYVMIYDRRKDLIISGGENIYPYQIETVAKQFPGISDAVCVGHPDDTWGQVPKLYFVSESDISKAQLIAYLSKHLAKYKVPKHFEKVDTLPYTSTGKLQRNKLYREGHHHHHH | soluble
